Measurements: PMC5880214

T1: AtPOT1a (Arabidopsis thaliana, UniProt Q56Y52 1-467)
T1 sequence: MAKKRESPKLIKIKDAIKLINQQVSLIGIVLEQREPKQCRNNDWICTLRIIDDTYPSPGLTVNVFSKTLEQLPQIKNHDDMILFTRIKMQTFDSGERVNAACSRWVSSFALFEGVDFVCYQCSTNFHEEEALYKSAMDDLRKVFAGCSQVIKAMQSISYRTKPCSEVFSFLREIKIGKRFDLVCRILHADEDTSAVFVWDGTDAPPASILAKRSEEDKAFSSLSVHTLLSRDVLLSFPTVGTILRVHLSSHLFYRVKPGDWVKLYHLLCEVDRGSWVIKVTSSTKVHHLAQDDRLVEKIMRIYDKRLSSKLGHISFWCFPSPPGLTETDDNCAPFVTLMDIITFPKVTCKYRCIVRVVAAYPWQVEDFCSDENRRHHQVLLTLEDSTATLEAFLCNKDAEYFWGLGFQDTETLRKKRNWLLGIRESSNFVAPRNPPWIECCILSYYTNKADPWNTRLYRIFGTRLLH

T2: AtPOT1b (Arabidopsis thaliana, UniProt Q6NKX5 1-454)
T2 sequence: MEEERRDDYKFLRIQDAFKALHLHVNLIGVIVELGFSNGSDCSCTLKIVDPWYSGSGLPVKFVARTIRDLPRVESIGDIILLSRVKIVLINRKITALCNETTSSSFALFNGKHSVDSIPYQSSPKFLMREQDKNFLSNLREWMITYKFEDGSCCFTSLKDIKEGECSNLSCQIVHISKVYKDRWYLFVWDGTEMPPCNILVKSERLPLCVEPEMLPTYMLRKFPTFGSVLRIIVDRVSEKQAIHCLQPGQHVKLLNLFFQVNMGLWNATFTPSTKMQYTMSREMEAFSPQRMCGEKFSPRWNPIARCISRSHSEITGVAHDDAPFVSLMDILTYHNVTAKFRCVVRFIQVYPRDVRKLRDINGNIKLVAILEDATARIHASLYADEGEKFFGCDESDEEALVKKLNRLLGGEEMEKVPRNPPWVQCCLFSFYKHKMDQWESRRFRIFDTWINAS

T3: mPOT1a_N (OB-fold domains of mouse POT1a) (mouse, UniProt Q91WC1 1-299)
T3 sequence: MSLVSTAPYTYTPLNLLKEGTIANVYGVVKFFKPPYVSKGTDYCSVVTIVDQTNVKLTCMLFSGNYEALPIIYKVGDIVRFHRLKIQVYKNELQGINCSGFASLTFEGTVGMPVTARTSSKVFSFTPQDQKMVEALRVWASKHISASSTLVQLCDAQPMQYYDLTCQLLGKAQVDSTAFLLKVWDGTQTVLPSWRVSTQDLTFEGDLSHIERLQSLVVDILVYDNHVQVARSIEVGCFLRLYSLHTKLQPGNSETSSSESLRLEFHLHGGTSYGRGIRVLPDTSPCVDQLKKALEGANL

T4: AtPOT1a_N (Arabidopsis thaliana, UniProt Q56Y52 1-300)
T4 sequence: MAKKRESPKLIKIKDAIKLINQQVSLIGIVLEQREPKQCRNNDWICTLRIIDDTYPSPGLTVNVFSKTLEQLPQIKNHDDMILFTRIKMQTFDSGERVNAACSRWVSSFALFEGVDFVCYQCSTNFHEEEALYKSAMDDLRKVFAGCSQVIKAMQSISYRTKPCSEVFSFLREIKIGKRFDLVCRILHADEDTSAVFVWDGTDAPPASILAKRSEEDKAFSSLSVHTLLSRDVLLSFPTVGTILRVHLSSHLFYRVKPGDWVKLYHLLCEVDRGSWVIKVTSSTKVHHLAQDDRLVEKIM

T5: AlPOT1b (Arabidopsis lyrata, UniProt B7T1J2 1-450)
T5 sequence: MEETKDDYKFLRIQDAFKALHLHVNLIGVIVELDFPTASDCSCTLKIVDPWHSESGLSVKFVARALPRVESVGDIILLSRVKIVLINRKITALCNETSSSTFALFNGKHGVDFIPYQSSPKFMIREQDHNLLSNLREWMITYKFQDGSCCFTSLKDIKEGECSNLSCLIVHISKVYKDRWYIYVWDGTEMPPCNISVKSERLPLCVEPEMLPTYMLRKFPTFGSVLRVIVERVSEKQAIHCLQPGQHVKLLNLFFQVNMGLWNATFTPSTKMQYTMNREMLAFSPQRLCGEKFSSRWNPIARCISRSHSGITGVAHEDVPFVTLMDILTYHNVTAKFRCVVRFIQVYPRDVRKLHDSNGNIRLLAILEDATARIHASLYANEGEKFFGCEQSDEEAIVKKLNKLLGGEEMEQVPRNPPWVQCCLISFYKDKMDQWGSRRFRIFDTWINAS

T6: AlPOT1a (Arabidopsis lyrata, UniProt B7T1J1 1-467)
T6 sequence: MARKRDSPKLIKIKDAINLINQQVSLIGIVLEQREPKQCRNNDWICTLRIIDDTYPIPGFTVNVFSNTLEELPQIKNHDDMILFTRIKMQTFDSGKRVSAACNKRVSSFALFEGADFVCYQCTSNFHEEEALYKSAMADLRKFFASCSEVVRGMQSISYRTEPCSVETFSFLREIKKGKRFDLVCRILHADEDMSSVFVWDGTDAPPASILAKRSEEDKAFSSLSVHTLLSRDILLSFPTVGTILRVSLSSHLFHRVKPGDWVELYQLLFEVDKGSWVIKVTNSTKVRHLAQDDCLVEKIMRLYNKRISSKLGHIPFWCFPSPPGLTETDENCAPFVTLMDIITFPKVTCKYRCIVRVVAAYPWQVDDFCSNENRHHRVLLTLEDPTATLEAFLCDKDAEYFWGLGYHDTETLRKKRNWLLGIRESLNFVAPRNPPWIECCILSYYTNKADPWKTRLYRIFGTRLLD

T7: AtPOT1b_N (Arabidopsis thaliana, UniProt Q6NKX5 1-300)
T7 sequence: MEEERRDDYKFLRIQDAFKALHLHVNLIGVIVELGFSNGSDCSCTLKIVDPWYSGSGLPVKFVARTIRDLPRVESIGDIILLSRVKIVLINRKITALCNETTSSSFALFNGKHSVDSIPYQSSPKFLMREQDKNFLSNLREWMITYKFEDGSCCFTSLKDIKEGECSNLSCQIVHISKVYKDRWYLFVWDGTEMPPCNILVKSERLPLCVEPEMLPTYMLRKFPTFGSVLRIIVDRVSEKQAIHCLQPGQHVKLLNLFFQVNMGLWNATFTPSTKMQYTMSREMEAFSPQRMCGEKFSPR

T8: BoPOT1a (Brassica oleracea (cauliflower, …, UniProt B7T1J7 1-456))
T8 sequence: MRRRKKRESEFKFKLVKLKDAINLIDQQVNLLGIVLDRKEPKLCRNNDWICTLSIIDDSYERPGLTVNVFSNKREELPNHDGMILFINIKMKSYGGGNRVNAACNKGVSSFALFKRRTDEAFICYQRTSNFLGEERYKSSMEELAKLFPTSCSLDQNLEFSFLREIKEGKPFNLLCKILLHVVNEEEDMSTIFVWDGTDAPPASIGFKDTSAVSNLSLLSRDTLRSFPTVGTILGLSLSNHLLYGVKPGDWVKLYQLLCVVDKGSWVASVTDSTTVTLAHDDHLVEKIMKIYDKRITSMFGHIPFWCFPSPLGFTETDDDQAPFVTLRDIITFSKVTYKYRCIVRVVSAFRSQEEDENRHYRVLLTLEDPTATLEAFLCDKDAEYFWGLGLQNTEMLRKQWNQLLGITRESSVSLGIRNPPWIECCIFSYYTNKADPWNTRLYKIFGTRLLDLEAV

T9: BoPOT1b (Brassica oleracea (cauliflower, …, UniProt B7T1J8 1-450))
T9 sequence: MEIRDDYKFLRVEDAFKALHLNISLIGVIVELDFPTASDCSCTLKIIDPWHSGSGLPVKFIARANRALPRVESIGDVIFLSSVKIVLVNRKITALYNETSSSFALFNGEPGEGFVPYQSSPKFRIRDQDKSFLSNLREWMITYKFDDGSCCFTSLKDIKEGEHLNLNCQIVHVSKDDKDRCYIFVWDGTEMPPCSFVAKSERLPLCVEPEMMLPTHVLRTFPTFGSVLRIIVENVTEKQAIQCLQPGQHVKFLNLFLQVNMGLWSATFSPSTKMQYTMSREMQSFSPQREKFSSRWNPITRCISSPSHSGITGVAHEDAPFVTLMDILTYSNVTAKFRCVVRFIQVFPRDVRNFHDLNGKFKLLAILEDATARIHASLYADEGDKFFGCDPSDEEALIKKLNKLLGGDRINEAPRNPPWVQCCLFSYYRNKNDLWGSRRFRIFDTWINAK


Key:
Assay in all cases: EMSA
[1] = molecular target: T1, AtPOT1a
[2] = molecular target: T2, AtPOT1b
[3] = molecular target: T3, mPOT1a_N (OB-fold domains of mouse …)
[4] = molecular target: T4, AtPOT1a_N
[5] = molecular target: T5, AlPOT1b
[6] = molecular target: T6, AlPOT1a
[7] = molecular target: T7, AtPOT1b_N
[8] = molecular target: T8, BoPOT1a
[9] = molecular target: T9, BoPOT1b

Binder | binding result [1] | binding result [2] | binding result [3] | binding result [4] | binding result [5] | binding result [6] | binding result [7] | binding result [8] | binding result [9]
CCCTAAACCCTAAACCCTAAACCCTAAACCCTAAA (ssDNA) [C-rich plant telomere repeat, five copies] | no binding | no binding | – | – | – | – | – | – | –
GGTTAGGGTTAG (ssDNA) [(GGTTAG)2 vertebrate telomere repeat] | – | – | binds | – | – | – | – | – | –
TTTAGGGTTTAGGGTTTAGGGTTTAGGGTTTAGGG (ssDNA) [(TTTAGGG)5] | no binding | no binding | – | no binding | no binding | no binding | no binding | no binding | no binding
TTTAGGGTTTAGGG (ssDNA) [(TTTAGGG)2] | no binding | no binding | – | no binding | no binding | no binding | no binding | no binding | no binding
